EC50 and Max effect data for 6 molecules are collected here from patent US20250171562A1 (ALK ABELL, published 2025).

The labels stand for the following.
B1: CIgG4B1A1(G4S)2 (Fc fusion)
chain 1: GPPCPPCPAPEFLGGPSVFLFPPKPKDTLMISRTPEVTCVVVDVSQEDPEVQFNWYVDGVEVHNAKTKPREEQFNSTYRVVSVLTVLHQDWLNGKEYKCKVSNKGLPSSIEKTISKAKGQPREPQVYTLPPCQEEMTKNQVSLWCLVKGFYPSDIAVEWESNGQPENNYKTTPPVLDSDGSFFLYSRLTVDKSRWQEGNVFSCSVMHEALHNHYTQKSLSLSLGKGGGGSGGGGSQVQLQESGGGLVQTGGSLRLSCAVHGRTFSNTGMGWFRQAPGNERQFVAIISPSGTSTYYADSVKGRFTISRDPAKNTVYLQMNSLKMDDTAVYYCAASYGSNWSTLRHQRRNEYDAWGQGTQVAVS
chain 2: GPPCPPCPAPEFLGGPSVFLFPPKPKDTLMISRTPEVTCVVVDVSQEDPEVQFNWYVDGVEVHNAKTKPREEQFNSTYRVVSVLTVLHQDWLNGKEYKCKVSNKGLPSSIEKTISKAKGQPREPQVCTLPPSQEEMTKNQVSLSCAVKGFYPSDIAVEWESNGQPENNYKTTPPVLDSDGSFFLVSRLTVDKSRWQEGNVFSCSVMHEALHNHYTQKSLSLSLGKGGGGSGGGGSEVQLLESGGGLVQPGGSLRLSCAASGFTFGNYDMAWVRQAPGKRPEWVSSIDTGGDITHYADSVKGRFTISRDNAKNTLYLQMNSLRPEDTAVYWCATDEEYALGPNEFDYYGQGTLVTVSS
B2: NIgG4A1A1(RS) (Fc fusion)
chain 1: EVQLLESGGGLVQPGGSLRLSCAASGFTFGNYDMAWVRQAPGKRPEWVSSIDTGGDITHYADSVKGRFTISRDNAKNTLYLQMNSLRPEDTAVYWCATDEEYALGPNEFDYYGQGTLVTVSSRSGPPCPPCPAPEFLGGPSVFLFPPKPKDTLMISRTPEVTCVVVDVSQEDPEVQFNWYVDGVEVHNAKTKPREEQFNSTYRVVSVLTVLHQDWLNGKEYKCKVSNKGLPSSIEKTISKAKGQPREPQVYTLPPCQEEMTKNQVSLWCLVKGFYPSDIAVEWESNGQPENNYKTTPPVLDSDGSFFLYSRLTVDKSRWQEGNVFSCSVMHEALHNHYTQKSLSLSLGK
chain 2: B2 chain 1 with Y251C, C256S, W268S, L270A, Y309V
B3: NIgG4A1A1(G4S)1 (Fc fusion)
chain 1: EVQLLESGGGLVQPGGSLRLSCAASGFTFGNYDMAWVRQAPGKRPEWVSSIDTGGDITHYADSVKGRFTISRDNAKNTLYLQMNSLRPEDTAVYWCATDEEYALGPNEFDYYGQGTLVTVSSGGGGSGPPCPPCPAPEFLGGPSVFLFPPKPKDTLMISRTPEVTCVVVDVSQEDPEVQFNWYVDGVEVHNAKTKPREEQFNSTYRVVSVLTVLHQDWLNGKEYKCKVSNKGLPSSIEKTISKAKGQPREPQVYTLPPCQEEMTKNQVSLWCLVKGFYPSDIAVEWESNGQPENNYKTTPPVLDSDGSFFLYSRLTVDKSRWQEGNVFSCSVMHEALHNHYTQKSLSLSLGK
chain 2: B3 chain 1 with Y254C, C259S, W271S, L273A, Y312V
B4: NIgG4A1A1(G4S)2 (Fc fusion)
chain 1: EVQLLESGGGLVQPGGSLRLSCAASGFTFGNYDMAWVRQAPGKRPEWVSSIDTGGDITHYADSVKGRFTISRDNAKNTLYLQMNSLRPEDTAVYWCATDEEYALGPNEFDYYGQGTLVTVSSGGGGSGGGGSGPPCPPCPAPEFLGGPSVFLFPPKPKDTLMISRTPEVTCVVVDVSQEDPEVQFNWYVDGVEVHNAKTKPREEQFNSTYRVVSVLTVLHQDWLNGKEYKCKVSNKGLPSSIEKTISKAKGQPREPQVYTLPPCQEEMTKNQVSLWCLVKGFYPSDIAVEWESNGQPENNYKTTPPVLDSDGSFFLYSRLTVDKSRWQEGNVFSCSVMHEALHNHYTQKSLSLSLGK
chain 2: B4 chain 1 with Y259C, C264S, W276S, L278A, Y317V
B5: CIgG4B1A1(G4S)1 (Fc fusion)
chain 1: GPPCPPCPAPEFLGGPSVFLFPPKPKDTLMISRTPEVTCVVVDVSQEDPEVQFNWYVDGVEVHNAKTKPREEQFNSTYRVVSVLTVLHQDWLNGKEYKCKVSNKGLPSSIEKTISKAKGQPREPQVYTLPPCQEEMTKNQVSLWCLVKGFYPSDIAVEWESNGQPENNYKTTPPVLDSDGSFFLYSRLTVDKSRWQEGNVFSCSVMHEALHNHYTQKSLSLSLGKGGGGSQVQLQESGGGLVQTGGSLRLSCAVHGRTFSNTGMGWFRQAPGNERQFVAIISPSGTSTYYADSVKGRFTISRDPAKNTVYLQMNSLKMDDTAVYYCAASYGSNWSTLRHQRRNEYDAWGQGTQVAVS
chain 2: GPPCPPCPAPEFLGGPSVFLFPPKPKDTLMISRTPEVTCVVVDVSQEDPEVQFNWYVDGVEVHNAKTKPREEQFNSTYRVVSVLTVLHQDWLNGKEYKCKVSNKGLPSSIEKTISKAKGQPREPQVCTLPPSQEEMTKNQVSLSCAVKGFYPSDIAVEWESNGQPENNYKTTPPVLDSDGSFFLVSRLTVDKSRWQEGNVFSCSVMHEALHNHYTQKSLSLSLGKGGGGSEVQLLESGGGLVQPGGSLRLSCAASGFTFGNYDMAWVRQAPGKRPEWVSSIDTGGDITHYADSVKGRFTISRDNAKNTLYLQMNSLRPEDTAVYWCATDEEYALGPNEFDYYGQGTLVTVSS
B6: CIgG4B1A1(G4S3) (Fc fusion)
chain 1: GPPCPPCPAPEFLGGPSVFLFPPKPKDTLMISRTPEVTCVVVDVSQEDPEVQFNWYVDGVEVHNAKTKPREEQFNSTYRVVSVLTVLHQDWLNGKEYKCKVSNKGLPSSIEKTISKAKGQPREPQVYTLPPCQEEMTKNQVSLWCLVKGFYPSDIAVEWESNGQPENNYKTTPPVLDSDGSFFLYSRLTVDKSRWQEGNVFSCSVMHEALHNHYTQKSLSLSLGKGGGGSGGGGSGGGGSQVQLQESGGGLVQTGGSLRLSCAVHGRTFSNTGMGWFRQAPGNERQFVAIISPSGTSTYYADSVKGRFTISRDPAKNTVYLQMNSLKMDDTAVYYCAASYGSNWSTLRHQRRNEYDAWGQGTQVAVS
chain 2: GPPCPPCPAPEFLGGPSVFLFPPKPKDTLMISRTPEVTCVVVDVSQEDPEVQFNWYVDGVEVHNAKTKPREEQFNSTYRVVSVLTVLHQDWLNGKEYKCKVSNKGLPSSIEKTISKAKGQPREPQVCTLPPSQEEMTKNQVSLSCAVKGFYPSDIAVEWESNGQPENNYKTTPPVLDSDGSFFLVSRLTVDKSRWQEGNVFSCSVMHEALHNHYTQKSLSLSLGKGGGGSGGGGSGGGGSEVQLLESGGGLVQPGGSLRLSCAASGFTFGNYDMAWVRQAPGKRPEWVSSIDTGGDITHYADSVKGRFTISRDNAKNTLYLQMNSLRPEDTAVYWCATDEEYALGPNEFDYYGQGTLVTVSS

Substitutions are numbered along the chain they refer to. Names and notes keep the numbering of the source.

What is called EC50 is the concentration that produces a half-maximal response.

T1 sequence (P01854 other isoform, or with tags, fused parts or gaps): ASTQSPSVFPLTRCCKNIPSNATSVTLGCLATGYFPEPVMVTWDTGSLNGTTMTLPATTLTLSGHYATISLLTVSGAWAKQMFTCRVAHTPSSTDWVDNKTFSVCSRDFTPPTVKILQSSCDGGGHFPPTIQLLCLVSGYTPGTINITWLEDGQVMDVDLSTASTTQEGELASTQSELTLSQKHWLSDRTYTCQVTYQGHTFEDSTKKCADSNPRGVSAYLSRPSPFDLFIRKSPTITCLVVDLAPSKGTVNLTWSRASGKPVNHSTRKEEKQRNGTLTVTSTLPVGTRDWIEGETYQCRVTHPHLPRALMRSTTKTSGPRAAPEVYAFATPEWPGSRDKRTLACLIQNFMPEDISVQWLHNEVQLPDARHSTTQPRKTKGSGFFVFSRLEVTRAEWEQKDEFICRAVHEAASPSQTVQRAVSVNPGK

The experiment has as its target T1, recombinant human IgE (human, UniProt P01854-1 1-428).
T1 construct: made in-house (ALK); preloaded on immobilised FcεRIα in the displacement ELISA
The experiment in a line: IgE-FcεRIα displacement ELISA. On the procedure:
The displacement effect was tested using IgE-FcεRIα displacement ELISA assay. Maxisorp® microtiter plates (Thermo Scientific Nunc, Roskilde, Denmark) were coated with 100 μl streptavidin, 5 μg/ml (Thermo Scientific, Waltham, MA) for 18 h at 4° C. followed by wash with 300 μl washing buffer (PBS containing 0.05% Tween 20) using an AquaMax® 2000 plate washer (Molecular Devices, San Jose, CA). Remaining binding sites were blocked with 250 μl blocking buffer (PBS containing 2% BSA) for 2 h and washed with 300 μl washing buffer. Subsequently, the bound streptavidin was loaded with 100 μl (0.1 μg/ml) recombinant human FcεRIα (site specific biotinylated via avi-tag, made in-house, ALK, Hørsholm, Denmark) for 1 h and plates washed twice with 300 μl washing buffer. The bound receptor was then loaded with 100 μl recombinant human IgE (made in-house, ALK, Hørsholm, Denmark), 13 ng/ml (pre-titrated to reach an OD₄₅₀ signal in the range of 1.5-2.5 in the absence of displacement components) for 1h followed by three washes of 300 μl washing buffer.
displacement step: 100 μl sdAbs diluted in concentration series (pM-μM range) or blocking buffer only as a non-displacement negative control, were added to the ELISA wells and incubated for 1 h. Any IgE, displaced from the receptor by a sdAb was washed away by three washes of 300 μl washing buffer.
The ability of the various sdAbs to displace IgE from the receptor (FcεRIα) was evaluated by use of the ELISA based IgE-FcεRIα displacement assay. The percent displacement effect was calculated as the relative reduction in signal compared to the control with no sdAb added. The EC₅₀ values and the maximal effects were determined (table 15).
(In general: An ELISA detects its analyte on a solid surface through an enzyme-linked reagent.)
Consider B1, for which the EC50 is 4 nM and the Max effect is above 95%.

For B2, the 50% effective concentration (EC50) stood at 490 nM.

As to B3, the EC50 was 260 nM.

As to B4, the EC50 was 230 nM.

For the molecule B5, the EC50 was 3.1 nM and the Max effect is above 95%.

Regarding B6, the concentration for a half-maximal effect (EC50) amounted to 3.5 nM and the Max effect was above 95%.
